Results: patent publication US20050064507A1, “Determining kinase specificity” (priority 2003, published 2005)

Key:
[1] = target: T1, PKC-zeta (Homo sapiens, UniProt Q05513); assay: In vitro kinase assay: peptide phosphorylation by PKC-zeta; format: biochemical
T1 construct: purchased Calbiochem
T1 sequence (Q05513 1-592): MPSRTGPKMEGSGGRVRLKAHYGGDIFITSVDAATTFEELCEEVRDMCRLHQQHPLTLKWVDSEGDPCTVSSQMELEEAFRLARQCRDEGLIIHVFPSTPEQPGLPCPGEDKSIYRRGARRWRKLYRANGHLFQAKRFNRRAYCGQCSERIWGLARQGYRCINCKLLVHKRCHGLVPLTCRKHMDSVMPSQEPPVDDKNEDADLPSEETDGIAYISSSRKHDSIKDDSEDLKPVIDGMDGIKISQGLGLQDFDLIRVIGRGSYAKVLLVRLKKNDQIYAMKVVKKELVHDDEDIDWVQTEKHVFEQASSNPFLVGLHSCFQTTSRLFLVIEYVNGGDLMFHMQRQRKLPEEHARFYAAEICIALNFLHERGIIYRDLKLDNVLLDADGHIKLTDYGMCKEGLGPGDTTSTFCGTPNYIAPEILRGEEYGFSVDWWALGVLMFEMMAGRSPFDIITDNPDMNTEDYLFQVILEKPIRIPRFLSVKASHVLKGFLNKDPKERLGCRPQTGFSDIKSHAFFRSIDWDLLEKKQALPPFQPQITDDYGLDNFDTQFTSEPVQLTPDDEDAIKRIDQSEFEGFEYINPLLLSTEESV
Procedure: Catalytically active preparations of the kinases of interest were either purchased or prepared. Purchased and tested active kinase preparations including the following: PKC-alpha, PKC-delta, PKC-epsilon, PKC-zeta, PKC-mu, PKA, PKG from Calbiochem, ROK alpha/ROCK-II, active from Upstate Biotechnology, and AKT1 from Panvera.
(§1) The conditions of the kinase assay and the amount of active kinase used varied with the kinase and with the accuracy needed. For a typical experiment, 5-20 ng of kinase was used per well and each peptide pool was assayed in duplicate wells. Note that the absolute amount of kinase used was not usually a critical parameter, because the desired information related to specificity of the kinase not its absolute activity, and robustness of the assay depends on comparisons of the same amount of kinase on different peptides. The combination of kinase concentration and assay duration was modified to assure that the stoichiometry of peptide phosphorylation never exceeded 5%. The choice of kinase buffer depended on the kinase being analyzed. For studies of PKC, 100 mM HEPES, 0.05% Triton-X100, 1 mM CaCl2, 20 mM MgCl2, 0.2 mg/ml phosphatidyl serine (Avanti Polar Lipids), PMA 100 ng/ml was typically used. The lipid stock was prepared by transferring 3 mg phosphatidyl serine into iced mixture of 450 μl water plus 50 μl of 10% Triton-X100, sonicating 10 times on ice for 1 sec each.
(§2) The kinase reaction mixture was assembled by sequential addition to a tube held on ice of: 5 μl peptide (100 μM for final concentration of 10 μM), 15 μl of kinase (typically 5 ng/well, in appropriate kinase buffer), 30 μl of ATP (1 uCi/well of ^32P-gamma ATP in a stock of 167 μM cold ATP in the kinase buffer; for final concentration for 100 μM ATP). The mixture was rapidly warmed to desired reaction temperature (30° C. for PKC) and incubated for the desired duration (usually 10 minutes). The kinase assay was terminated by transfer to 4° C. water batch, and rapid addition of an equal volume (50 μl) of stop solution [0.1M ATP+0.1M EDTA in water, pH 8].
(§3) The peptides were then captured from the reaction mixture by transfer to a Reacti-Bind Streptavidin High Binding Capacity Coated Plates (HBC) (Pierce Biotechnology) as follows. The HBC plates were pre-rinsed three times with PBS/Tween PBS/Tween20 0.05% (PBS/Tween). Part of all of the reaction mixture was then transferred wells of a HBC plate pre-filled with 90 μl of phosphate-buffered saline (PBS); typically each aliquots of each phosphorylation reaction were transferred to duplicate HBC plates to assure accuracy by additional replication
For kinase assays done at the standard peptide concentration of 10 μM, the peptide concentration in the reaction mixture becomes 5 μM after addition of the stop solution; consequently 10 μl of the reaction (50 pMoles of peptide) was transferred to the HBC plate. More generally, the amount of reaction mixture transferred was estimated to be about 50 pMoles of peptide. […] The HBC plates were incubated for 0.5 to 1.5 hr at room temperature for complete binding of biotinylated peptides to plate-bound streptavidin. The HBC plates were then washed extensively with PBS/Tween. Five washes were done routinely and additional wash steps were added if the wash solution removed from the plate had measurable radioactivity as detected using a Geiger counter. This step is essential to obtaining a good the signal to noise ratio because the fraction of radioactivity incorporated in the peptides was a tiny fraction of the total in the reaction mixture. The wells were air-dried. A volume of 40-50 μl of microScint-20 (Packard Instruments) was added to each well. The plates were covered with stick-on film sheet. Radioactive emissions were measured in a TopCount NXT Microplate Scintillation and Luminescence Counter (Packard Instruments). Typically samples were counted for 5 minutes (or more) to improve the signal to noise ratio when counts were low. […]

[2] = test system: PKC; assay: In vitro phosphorylation by PKC (average of isoforms alpha, epsilon, delta, theta); format: biochemical; conditions: average over PKC-theta, -epsilon and -alpha at 10 and 1 uM peptide, relative to best substrate
Procedure: as §1, §2, §3
For kinase assays done at the standard peptide concentration of 10 μM, the peptide concentration in the reaction mixture becomes 5 μM after addition of the stop solution; consequently 10 μl of the reaction (50 pMoles of peptide) was transferred to the HBC plate. More generally, the amount of reaction mixture transferred was estimated to be about 50 pMoles of peptide. […] The HBC plates were incubated for 0.5 to 1.5 hr at room temperature for complete binding of biotinylated peptides to plate-bound streptavidin. The HBC plates were then washed extensively with PBS/Tween. Five washes were done routinely and additional wash steps were added if the wash solution removed from the plate had measurable radioactivity as detected using a Geiger counter. This step is essential to obtaining a good the signal to noise ratio because the fraction of radioactivity incorporated in the peptides was a tiny fraction of the total in the reaction mixture. The wells were air-dried. A volume of 40-50 μl of microScint-20 (Packard Instruments) was added to each well. The plates were covered with stick-on film sheet. Radioactive emissions were measured in a TopCount NXT Microplate Scintillation and Luminescence Counter (Packard Instruments). Typically samples were counted for 5 minutes (or more) to improve the signal to noise ratio when counts were low.
Many peptides that are good substrates for PKC enzymes were identified using the methods of the invention. For example, Tables 4 and 5 provide a listing of peptides identified as potentially useful kinase substrates. […]

Substance | phosphorylation by PKC zeta ([1]; peptide concentration 1 uM) | phosphorylation by PKC zeta ([1]; peptide concentration 10 uM) | average (phosphorylation by PKC-theta, -delta, -epsilon, -alpha) [2]
114 (KKKKRASFKRKSSKKG) [compound 114] | 45 | 51 | 95
115 (NRKKKRTSFKRKA) [compound 115] | 11 | 10 | 80
116 (EEGTFRSSIRRLSTRRR) [compound 116] | 100 | 100 | 71
117 (NRKKKRTSFKRKA) [compound 117] | 20 | 11 | 70
118 (RPQNTLKASKKKKRASFKRK) [compound 118] | 46 | 57 | 64
119 (KKRFSFKKSFKLSGFSFKKN) [compound 119] | 20 | 20 | 61
120 (AKRRRLSSLRASTSK) [compound 120] | 43 | 34 | 52
121 (LRRRSLRRSNSISKSPGP) [compound 121] | 60 | 56 | 50
122 (RAITSTLASSFKRRR) [compound 122] | 20 | 17 | 49
123 (KKRFSFKKSFKLSGFSFKKN) [compound 123] | 20 | 20 | 49
124 (PRLIRRGSKKRPAR) [compound 124] | 45 | 32 | 49
125 (PLKEKKRERKTSSKSSVRKR) [compound 125] | 13 | 12 | 48
126 (KAIKAIEGGQKFARKSTRRS) [compound 126] | 46 | 56 | 46
127 (SQVQKQRSAGSFKRNSIKKI) [compound 127] | 19 | 19 | 43
128 (QQVDRERPHVRRRRGTFKRS) [compound 128] | 14 | 9 | 42
129 (VQRHRSMRKTFARYLSFRRD) [compound 129] | 51 | 31 | 40
130 (EYLERRASRRRAV) [compound 130] | 36 | 39 | 39
131 (WKGKRRSKARKKRK) [compound 131] | 7 | 6 | 38
132 (GFLNEPLSSKSQRRKSLKLK) [compound 132] | 19 | 61 | 38
133 (LEKRGMLGKRPRRKSSRRKK) [compound 133] | 27 | 30 | 37
134 (RSRSRSRSKSKDKRKSRKRS) [compound 134] | 5 | 5 | 34
135 (KKKFRTPSFLKKSKK) [compound 135] | 11 | 13 | 33
136 (RARRDSLKKIEIW) [compound 136] | 6 | 9 | 32
137 (PSKSPSKKKKKFRTPSFLKK) [compound 137] | 4 | 5 | 31
138 (EYLERRASRRRAV) [compound 138] | 31 | 61 | 31
139 (RPTPGDGEKRSRIKKSKKRK) [compound 139] | 1 | 1 | 30
